{"source": "paper PMC3555993", "about": "“Structural and Functional Analysis of the DEAF-1 and BS69 MYND Domains” (PLoS ONE, 2013)", "binders": {"B1": {"name": "human DEAF-1 MYND domain (residues 501–544) (domain or fragment)", "chain": "GAMEQSCVNCGREAMSECTGCHKVNYCSTFCQRKDWKDHQHICGQSA", "notes": "N-terminal insertion of three amino acids GAM; DEAF-1, human, MYND domain, residues 501-544; 15N- or 15N/13C-labelled for NMR; also called short construct; source: E. coli BL21(DE3), purified (Ni-NTA, TEV cleavage, second Ni column, Superdex 75); not shown: poly-histidine tag, N-terminal, cleaved; thioredoxin, N-terminal, cleaved"}}, "key": {"[1]": {"target": "the molecule itself", "test": "AUC; sedimentation velocity, concentration-dependent; continuous sedimentation distribution at 86 µM DEAF-1 MYND; fitted to a self-association model; dimer to monomers"}, "[2]": {"target": "B1", "test": "NMR titration; 1 mM 15N-labeled DEAF-1 MYND titrated with unlabeled peptide (SMRT up to 9-fold, NCoR up to 5-fold molar excess); chemical shift perturbations fitted to a binding isotherm; fast exchange", "conditions": "both partners purified"}}}
{"binder": "B1", "values": [{"measurement": "Kd", "setting": "[1]", "value": "0.0005 ± 0.0001", "unit": "mM"}, {"measurement": "stoichiometry N", "setting": "[1]", "value": 2}]}
{"binder": "SNPPPLISSA (silencing mediator of retinoid and thyroid receptor (SMRT), residues 1111-1120; Unlabelled peptide; also called SMRT peptide)", "note": "[SMRT corepressor peptide (residues 1111–1120 of SMRT)]", "values": [{"measurement": "Kd", "setting": "[2]", "value": "5.3 ± 0.54", "unit": "mM"}]}
{"binder": "RPPPPLIPSS (nuclear receptor corepressor (NCoR), residues 1031-1040; Unlabelled peptide; also called NCoR peptide)", "note": "[NCoR corepressor peptide (residues 1031–1040 of NCoR)]", "values": [{"measurement": "Kd", "setting": "[2]", "value": "3.08 ± 0.12", "unit": "mM"}]}
